Drawing on PMC5028754 (2016), this text covers Ka for three molecules.

Assay [1] addresses T1, bovine ubiquitin (bovine, UniProt P0CG53 1-76). Description: ITC.
The target of assay [2] is T1, bovine ubiquitin. Description: ITC; one-site model, N=2.

B1: Ddi1 RVP-UBA (180-428) (domain or fragment)
chain: QQAIDEQLRNAIEYTPEMFTQVPMLYINIEINNYPVKAFVDTGAQTTIMSTRLAKKTGLSRMIDKRFIGEARGVGTGKIIGRIHQAQVKIETQYIPCSFTVLDTDIDVLIGLDMLKRHLACVDLKENVLRIAEVETSFLSEAEIPKSFQEGLPAPTSVTTSSDKPLTPTKTSSTLPPQPGAVPALAPRTGMGPTPTGRSTAGATTATGRTFPEQTIKQLMDLGFPRDAVVKALKQTNGNAEFAASLLFQ
With B1, the Ka with bovine ubiquitin [1] stood at 23400 M⁻¹.

B2: Ddi1 UBL-RVP (1-325) (domain or fragment)
chain: MDLTISNELTGEIYGPIEVSEDMALTDLIALLQADCGFDKTKHDLYYNMDILDSNRTQSLKELGLKTDDLLLIRGKISNSIQTDAATLSDEAFIEQFRQELLNNQMLRSQLILQIPGLNDLVNDPLLFRERLGPLILQRRYGGYNTAMNPFGIPQDEYTRLMANPDDPDNKKRIAELLDQQAIDEQLRNAIEYTPEMFTQVPMLYINIEINNYPVKAFVDTGAQTTIMSTRLAKKTGLSRMIDKRFIGEARGVGTGKIIGRIHQAQVKIETQYIPCSFTVLDTDIDVLIGLDMLKRHLACVDLKENVLRIAEVETSFLSEAEIPK
Turning to B2, the Ka in the assay with bovine ubiquitin [1] turned out to be 3190 M⁻¹.

B3: full-length yeast Ddi1 (natural protein)
chain: MDLTISNELTGEIYGPIEVSEDMALTDLIALLQADCGFDKTKHDLYYNMDILDSNRTQSLKELGLKTDDLLLIRGKISNSIQTDAATLSDEAFIEQFRQELLNNQMLRSQLILQIPGLNDLVNDPLLFRERLGPLILQRRYGGYNTAMNPFGIPQDEYTRLMANPDDPDNKKRIAELLDQQAIDEQLRNAIEYTPEMFTQVPMLYINIEINNYPVKAFVDTGAQTTIMSTRLAKKTGLSRMIDKRFIGEARGVGTGKIIGRIHQAQVKIETQYIPCSFTVLDTDIDVLIGLDMLKRHLACVDLKENVLRIAEVETSFLSEAEIPKSFQEGLPAPTSVTTSSDKPLTPTKTSSTLPPQPGAVPALAPRTGMGPTPTGRSTAGATTATGRTFPEQTIKQLMDLGFPRDAVVKALKQTNGNAEFAASLLFQ
Consider B3, for which the Ka in the assay with bovine ubiquitin [2] was 3160 M⁻¹.
